Consider three molecules from article PMC2588538, “Structure of Reovirus σ1 in Complex with Its Receptor Junctional Adhesion Molecule-A” (PLoS Pathogens, 2008).

The chains are these.
B1: reovirus type 3 Dearing (T3D) σ1 fragment comprising the head domain and one β-spiral of the tail (σ1H; residues 293–455) (domain or fragment)
chain: GSSPNLRYPIADVSGGIGMSPNYRFRQSMWIGIVSYSGSGLNWRVQVNSDIFIVDDYIHICLPAFDGFSIADGGDLSLNFVTGLLPPLLTGDTEPAFHNDVVTYGAQTVAIGLSSGGAPQYMSKNLWVEQWQDGVLRLRVEGGGSITHSNSKWPAMTVSYPRSFT
notes: two non-native residues left at the N-terminus after removal of GST, numbered Gly291 and Ser292; reovirus attachment protein σ1, strain type 3 Dearing (T3D), residues 293-455 (head domain and one β-spiral of the tail); Trimer in the crystal; also called T3D σ1 head domain; not shown: GST, N-terminal, cleaved
B2: D1 domain of human junctional adhesion molecule-A (hJAM-A D1; residues 28–129) (domain or fragment)
chain: GSSVTVHSSEPEVRIPENNPVKLSCAYSGFSSPRVEWKFDQGDTTRLVCYNNKITASYEDRVTFLPTGITFKSVTREDTGTYTCMVSEEGGNSYGEVKVKLIVL
notes: two non-native residues left at the N-terminus after removal of GST, numbered Gly26 and Ser27; human junctional adhesion molecule-A, membrane-distal D1 domain, residues 28-129; Homodimer in solution at neutral pH; also called wt D1; source: E. coli BL21 (DE3) pLysS, purified (GSTrap, on-column thrombin cleavage, SEC); not shown: GST, N-terminal, cleaved

One data set concerns the target CAR (Homo sapiens) (UniProt P78310). The settings on record: cited from earlier work.
Data set [1] deals with the molecule itself. Nature of the data set: crystal structure; σ1H-D1 complex, 3.4 Å, space group P2_(1)2_(1)2; crystals from 0.1 M CHES pH 9.5, polyethylene glycol 3350, 20°C; two σ1H trimers each with three D1 monomers in the asymmetric unit.
Data set [2] deals with the molecule itself. Nature of the data set: AUC; sedimentation equilibrium, 17.5/25/35 krpm, 25°C, 20 mM Tris pH 7.5, 100 mM NaCl; four concentrations 0.16 to 1.6 mg/mL; monomer-dimer model with variable amounts of tetramer; dimer to monomers.
Data set [3] has as its target B1. The data set can be described thus: crystal structure; σ1H-D1 complex, 3.4 Å, space group P2_(1)2_(1)2; crystals from 0.1 M CHES pH 9.5, polyethylene glycol 3350, 20°C; two σ1H trimers each with three D1 monomers in the asymmetric unit. The settings on record: both partners purified.
Data set [4] deals with the molecule itself. The data set can be described thus: AUC; sedimentation velocity, 50 krpm, 25°C, 20 mM Tris pH 7.5, 100 mM NaCl; five concentrations 0.06 to 1.31 mg/mL; interference optics.

As for CAR (from UniProt P78310), in the data set with CAR (Homo sapiens), the Kd was 16 µM.
As to B1, the “stoichiometry N” value in data set [1] is 3.
Take B2: in data set [2], the Kd was 11 µM. Further, the binding result in data set [3] is “binds”. The “stoichiometry N” value in data set [4] was 2.

The term Kd denotes a measure of binding affinity in units of concentration. A word on the stoichiometry N: it is a count of units in the complex or per binding partner.
